Test results reported in article PMC3204175.

Biological target: CALM_(2091)AF10 (human) (UniProt Q13492)
Assay: FRET or BRET

average FRET efficiency: 13%
mean donor photobleaching decay constant (CFP with YFP; CFP alone 0.72): 0.5
Substance: CALM_(2091)AF10 (from UniProt Q13492 1-648)
